Assay: GLP repeat-dose toxicity and safety pharmacology in cynomolgus monkeys
Type: in vivo, cynomolgus monkey

## ADG106: fully human agonistic anti-CD137 monoclonal IgG4 antibody; heavy chain SEQ ID NO: 10, light chain SEQ ID NO: 11
Cynomolgus monkey, in vivo
  NOAEL and HNSTD: > 200 mg/kg
Once weekly IV infusion up to 29 days
  NOEL and NOAEL: 200 mg/kg

Reference: patent US20230133118A1, “COMPOSITIONS AND METHODS FOR TREATING CANCER” (Adagene AG, priority 2020, published 2023)
